Test results: the supplement of paper PMC10065799, “High-throughput profiling of sequence recognition by tyrosine kinases and SH2 domains using bacterial peptide display” (eLife, 2023)

Assays:
[1] = system: AncSZ; assay: phosphorylation enrichment, bacterial display (enrichment ratio); higher = better substrate or ligand; peptides without Tyr show the background
[2] = target: EPHB1 (UniProt P54762); assay: as above
[3] = target: EPHB2 (UniProt P29323); assay: as above
[4] = target: FGFR1 (UniProt P11362); assay: as above
[5] = target: FGFR3 (UniProt P22607); assay: as above
[6] = system: Fer (mouse); assay: as above
[7] = target: Fes (UniProt P07332); assay: as above
[8] = target: Fyn (UniProt P06241); assay: as above
[9] = target: Hck (UniProt P08631); assay: as above
[10] = target: Jak2 (UniProt O60674); assay: as above
[11] = target: MERTK (UniProt Q12866); assay: as above
[12] = system: c-Abl (mouse); assay: as above
[13] = system: c-Src; assay: as above
[14] = target: Grb2 SH2 (UniProt P62993); assay: SH2 binding enrichment of the phosphorylated peptide, bacterial display (enrichment ratio); higher = better substrate or ligand; peptides without Tyr show the background
[15] = target: SHP2-C SH2; assay: as above
[16] = target: c-Src SH2; assay: as above
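Throughout, for SH2 binding enrichment of the phosphorylated peptide, bacterial display: peptide library displayed on the E. coli surface as eCPX fusions, selected cells deep-sequenced, score is each peptide's frequency after selection divided by its frequency in the input.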
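Throughout, for phosphorylation enrichment, bacterial display: 11-residue human phosphosite peptides and single-mutation variants displayed on the E. coli surface, counted by deep sequencing, each peptide's frequency after selection divided by its frequency in the unselected input library; frequency after pTyr selection over input frequency; kinase dosed for 20-30% of maximal phosphorylation in three min.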

Sequence of FGFR1 (P11362 whole entry, looked up): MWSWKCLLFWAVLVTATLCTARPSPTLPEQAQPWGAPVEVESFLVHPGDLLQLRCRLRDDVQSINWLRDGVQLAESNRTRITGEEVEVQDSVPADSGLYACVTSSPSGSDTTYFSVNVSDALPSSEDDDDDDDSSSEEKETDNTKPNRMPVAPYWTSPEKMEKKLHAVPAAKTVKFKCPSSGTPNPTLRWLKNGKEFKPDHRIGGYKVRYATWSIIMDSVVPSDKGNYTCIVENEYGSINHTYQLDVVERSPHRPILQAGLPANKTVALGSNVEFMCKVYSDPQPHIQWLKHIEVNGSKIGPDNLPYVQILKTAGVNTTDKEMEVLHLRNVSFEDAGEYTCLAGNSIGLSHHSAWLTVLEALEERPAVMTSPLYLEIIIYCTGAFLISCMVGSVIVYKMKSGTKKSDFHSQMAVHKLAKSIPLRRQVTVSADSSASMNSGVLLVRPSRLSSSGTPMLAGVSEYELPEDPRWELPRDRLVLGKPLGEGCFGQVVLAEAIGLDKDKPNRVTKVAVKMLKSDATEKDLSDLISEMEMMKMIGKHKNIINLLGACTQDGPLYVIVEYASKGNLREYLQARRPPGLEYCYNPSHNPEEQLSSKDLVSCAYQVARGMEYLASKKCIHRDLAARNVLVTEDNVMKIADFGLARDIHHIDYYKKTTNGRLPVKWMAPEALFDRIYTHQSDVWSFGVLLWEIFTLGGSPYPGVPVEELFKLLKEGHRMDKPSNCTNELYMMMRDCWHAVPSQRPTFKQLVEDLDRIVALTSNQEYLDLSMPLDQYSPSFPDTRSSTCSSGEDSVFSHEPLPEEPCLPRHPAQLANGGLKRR
Sequence of Hck (P08631 whole entry, looked up): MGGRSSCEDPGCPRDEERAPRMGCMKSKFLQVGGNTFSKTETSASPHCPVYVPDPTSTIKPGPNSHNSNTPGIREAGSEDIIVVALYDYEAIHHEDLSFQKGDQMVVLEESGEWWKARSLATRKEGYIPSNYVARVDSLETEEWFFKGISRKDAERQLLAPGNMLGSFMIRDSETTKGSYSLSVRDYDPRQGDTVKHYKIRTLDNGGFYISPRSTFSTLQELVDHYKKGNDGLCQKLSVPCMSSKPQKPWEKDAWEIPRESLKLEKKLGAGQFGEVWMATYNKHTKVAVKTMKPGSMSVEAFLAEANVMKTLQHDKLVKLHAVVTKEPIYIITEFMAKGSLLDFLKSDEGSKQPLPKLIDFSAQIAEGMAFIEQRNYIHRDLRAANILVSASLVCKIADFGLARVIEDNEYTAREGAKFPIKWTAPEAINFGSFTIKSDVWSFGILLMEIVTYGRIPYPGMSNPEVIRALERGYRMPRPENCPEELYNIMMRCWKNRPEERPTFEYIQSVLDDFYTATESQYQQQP
Sequence of FGFR3 (P22607 whole entry, looked up): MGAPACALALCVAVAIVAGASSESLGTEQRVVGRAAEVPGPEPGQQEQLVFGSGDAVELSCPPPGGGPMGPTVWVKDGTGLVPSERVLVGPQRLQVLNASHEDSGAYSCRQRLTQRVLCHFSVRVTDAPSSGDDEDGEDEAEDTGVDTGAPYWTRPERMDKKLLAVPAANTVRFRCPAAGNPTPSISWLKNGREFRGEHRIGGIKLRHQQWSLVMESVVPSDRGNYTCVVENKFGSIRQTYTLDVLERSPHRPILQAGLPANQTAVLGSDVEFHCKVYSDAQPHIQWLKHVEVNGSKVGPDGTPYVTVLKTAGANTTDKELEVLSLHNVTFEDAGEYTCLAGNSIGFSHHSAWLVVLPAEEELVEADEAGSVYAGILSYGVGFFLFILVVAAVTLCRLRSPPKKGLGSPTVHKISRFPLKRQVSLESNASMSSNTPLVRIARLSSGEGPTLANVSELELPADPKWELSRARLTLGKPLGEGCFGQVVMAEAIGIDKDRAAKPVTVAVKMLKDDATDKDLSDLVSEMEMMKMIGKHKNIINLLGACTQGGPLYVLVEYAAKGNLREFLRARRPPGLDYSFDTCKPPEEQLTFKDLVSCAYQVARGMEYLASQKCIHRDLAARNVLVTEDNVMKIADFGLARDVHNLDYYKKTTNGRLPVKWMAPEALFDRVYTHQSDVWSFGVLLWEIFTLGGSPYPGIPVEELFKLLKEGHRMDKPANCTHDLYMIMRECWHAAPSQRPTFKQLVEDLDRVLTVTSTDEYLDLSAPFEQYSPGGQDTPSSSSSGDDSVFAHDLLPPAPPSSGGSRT
Sequence of Fes (P07332 whole entry, looked up): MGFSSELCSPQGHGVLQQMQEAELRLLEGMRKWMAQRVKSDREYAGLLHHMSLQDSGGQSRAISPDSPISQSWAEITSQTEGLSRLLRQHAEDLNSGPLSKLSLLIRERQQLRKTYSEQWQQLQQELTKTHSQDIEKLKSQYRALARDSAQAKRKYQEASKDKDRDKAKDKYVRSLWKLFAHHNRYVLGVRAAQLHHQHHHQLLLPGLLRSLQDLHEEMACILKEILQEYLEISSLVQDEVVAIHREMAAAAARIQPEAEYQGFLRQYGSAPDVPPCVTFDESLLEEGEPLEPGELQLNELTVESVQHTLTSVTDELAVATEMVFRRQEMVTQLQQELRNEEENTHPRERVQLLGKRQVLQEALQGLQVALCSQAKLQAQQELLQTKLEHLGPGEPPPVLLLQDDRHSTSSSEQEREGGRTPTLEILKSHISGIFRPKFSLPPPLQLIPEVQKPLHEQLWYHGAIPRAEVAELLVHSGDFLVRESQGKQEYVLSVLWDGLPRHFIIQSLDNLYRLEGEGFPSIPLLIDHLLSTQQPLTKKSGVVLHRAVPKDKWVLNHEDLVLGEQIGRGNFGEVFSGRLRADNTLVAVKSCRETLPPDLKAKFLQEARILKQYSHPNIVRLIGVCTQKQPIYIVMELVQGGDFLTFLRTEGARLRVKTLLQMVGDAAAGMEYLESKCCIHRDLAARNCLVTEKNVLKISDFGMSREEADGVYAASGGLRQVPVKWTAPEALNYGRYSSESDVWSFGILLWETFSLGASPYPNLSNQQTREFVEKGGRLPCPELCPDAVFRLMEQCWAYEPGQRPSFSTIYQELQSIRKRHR
Sequence of Fyn (P06241 whole entry, looked up): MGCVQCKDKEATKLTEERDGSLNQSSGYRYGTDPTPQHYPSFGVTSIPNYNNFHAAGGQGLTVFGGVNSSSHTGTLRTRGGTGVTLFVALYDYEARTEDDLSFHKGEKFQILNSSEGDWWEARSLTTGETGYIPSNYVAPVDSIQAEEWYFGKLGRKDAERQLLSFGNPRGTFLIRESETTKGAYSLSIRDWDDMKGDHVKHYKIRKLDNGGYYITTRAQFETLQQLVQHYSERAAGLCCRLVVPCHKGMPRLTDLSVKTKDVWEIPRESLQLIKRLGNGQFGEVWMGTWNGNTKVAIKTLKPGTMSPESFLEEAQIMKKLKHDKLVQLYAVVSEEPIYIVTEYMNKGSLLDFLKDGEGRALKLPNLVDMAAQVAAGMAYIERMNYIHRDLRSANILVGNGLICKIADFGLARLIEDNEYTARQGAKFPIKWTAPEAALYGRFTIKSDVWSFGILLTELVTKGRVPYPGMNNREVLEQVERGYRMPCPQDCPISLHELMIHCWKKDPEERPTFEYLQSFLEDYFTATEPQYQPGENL
Sequence of MERTK (Q12866 whole entry, looked up): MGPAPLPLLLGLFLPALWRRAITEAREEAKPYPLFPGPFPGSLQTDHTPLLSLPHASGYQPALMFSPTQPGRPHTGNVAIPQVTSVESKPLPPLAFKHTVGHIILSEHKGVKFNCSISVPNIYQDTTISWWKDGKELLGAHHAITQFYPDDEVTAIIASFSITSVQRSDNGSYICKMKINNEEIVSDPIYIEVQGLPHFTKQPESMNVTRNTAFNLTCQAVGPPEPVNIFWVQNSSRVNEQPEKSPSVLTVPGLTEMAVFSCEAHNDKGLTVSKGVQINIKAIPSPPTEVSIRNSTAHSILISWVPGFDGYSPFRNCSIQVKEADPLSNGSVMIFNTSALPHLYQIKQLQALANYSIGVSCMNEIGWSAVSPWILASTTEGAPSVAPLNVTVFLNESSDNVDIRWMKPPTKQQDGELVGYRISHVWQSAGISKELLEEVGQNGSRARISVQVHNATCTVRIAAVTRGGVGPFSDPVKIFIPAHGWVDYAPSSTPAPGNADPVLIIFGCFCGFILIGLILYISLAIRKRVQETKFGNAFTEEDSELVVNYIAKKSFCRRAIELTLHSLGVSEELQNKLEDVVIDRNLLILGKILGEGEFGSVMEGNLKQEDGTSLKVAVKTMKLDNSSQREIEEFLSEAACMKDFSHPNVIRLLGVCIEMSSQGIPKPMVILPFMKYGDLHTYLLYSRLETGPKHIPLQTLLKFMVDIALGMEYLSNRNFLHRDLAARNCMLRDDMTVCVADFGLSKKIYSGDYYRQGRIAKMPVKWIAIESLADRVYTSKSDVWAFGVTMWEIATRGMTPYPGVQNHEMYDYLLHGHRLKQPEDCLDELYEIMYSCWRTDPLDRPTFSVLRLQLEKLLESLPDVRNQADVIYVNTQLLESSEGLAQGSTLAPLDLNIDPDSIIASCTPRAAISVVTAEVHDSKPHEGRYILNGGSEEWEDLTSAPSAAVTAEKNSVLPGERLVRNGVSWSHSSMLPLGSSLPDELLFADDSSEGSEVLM
Sequence of Grb2 SH2 (P62993 whole entry, looked up): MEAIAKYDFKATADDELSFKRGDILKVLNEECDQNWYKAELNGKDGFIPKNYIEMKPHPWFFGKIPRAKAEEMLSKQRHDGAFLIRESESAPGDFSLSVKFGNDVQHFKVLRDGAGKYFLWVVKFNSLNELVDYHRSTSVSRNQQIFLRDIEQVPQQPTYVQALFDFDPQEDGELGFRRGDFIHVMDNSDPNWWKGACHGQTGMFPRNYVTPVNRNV

Sequence	phosphorylation enrichment [1]	phosphorylation enrichment [2]	phosphorylation enrichment [3]	phosphorylation enrichment [4]	phosphorylation enrichment [5]	phosphorylation enrichment [6]	phosphorylation enrichment [7]	phosphorylation enrichment [8]	phosphorylation enrichment [9]	phosphorylation enrichment [10]	phosphorylation enrichment [11]	phosphorylation enrichment [12]	phosphorylation enrichment [13]	SH2 binding enrichment [14]	SH2 binding enrichment [15]	SH2 binding enrichment [16]
FSCLPCGRLAF [SLC52A2_Y305_Y305C_YF]	0.752	0.442	0.404	0.657	0.542	0.423	0.868	0.354	0.389	0.67	0.532	0.55	0.33	1.36	1.38	1.62
ADARMYGVLLW [PLP1_Y207_P211L]	1.12	0.559	0.662	0.591	0.751	0.616	1.39	3.59	2.42	1.03	0.544	0.741	4.01	0.573	0.519	0.327
EVTRLYGSVCD [TC2N_Y154_K151T]	1.18	0.708	0.586	0.557	0.783	0.982	1.29	3.63	2.02	1.27	0.727	0.895	2.77	1.11	0.379	0.503
ANNEFYFQVCA	1.26	0.656	0.588	0.755	0.939	0.601	1.37	0.478	0.536	1.25	0.43	0.818	0.486	0.741	0.662	0.337
FSCLPYGRLAF [SLC52A2_Y305_YF]	0.935	0.352	0.55	0.71	0.649	0.559	1.01	0.629	0.936	1.03	0.56	0.882	2.36	0.793	0.538	0.777
AEEEIYGIFGA [SRCtide_2014]	2.1	1.36	1.36	0.615	0.89	3	1.31	5.63	4.39	1.35	3.88	3.69	4.49	0.775	0.584	0.494
CSPLLYRVIMS [OR8D4_Y132]	1.22	0.691	0.695	0.611	0.75	0.577	1.25	0.527	0.6	0.992	0.507	0.851	0.449	0.825	0.571	0.393
LRAGVYREKDQ [DNM2_Y626_P627R]	0.882	0.392	0.295	0.335	0.524	0.349	0.636	0.35	0.449	0.38	0.398	0.514	0.448	0.646	0.478	0.427
SVVVPYEPPKV [TP53_Y220_E224K]	0.827	0.474	0.59	0.41	0.612	0.45	0.837	0.387	0.465	0.822	0.366	0.895	0.465	0.806	0.512	0.64
PLQKTYNFNML [SLC4A1_Y553_V557M_YF]	0.801	0.476	0.587	0.318	0.809	0.665	1.17	0.493	0.594	0.861	0.582	0.63	0.784	0.713	2.38	0.717
GKGGSYSQAAC [HLA-B_Y344]	0.452	0.352	0.365	0.385	0.444	0.408	0.649	0.342	0.419	0.569	0.377	0.625	0.396	0.971	0.881	0.746
LLREWYVQDPF [SIX3_Y225_L226V_YF]	0.961	0.673	0.621	0.766	0.998	0.576	0.977	0.438	0.522	0.892	0.443	0.528	0.466	1.03	1	1.11
CTLLPYFSARV [DGKE_Y269_YF]	0.987	0.613	0.615	0.518	0.736	0.515	1.11	0.453	0.508	1.09	0.424	1.11	0.43	0.791	0.711	0.523
ASMAKYYASEI [ACADSB_Y372]	0.701	0.404	0.32	0.483	0.576	0.38	0.761	0.491	0.515	0.92	0.731	0.717	0.595	0.849	0.554	0.575
KAEQLYIGVTV [EFHC2_Y509_E507Q]	1.84	1.27	0.758	3.47	2.88	6.51	1.25	2.33	3.03	0.964	2.99	0.876	2.33	0.708	0.733	0.454
KASRKYFAMKI [AKT3_Y173_G171R_YF]	0.555	0.286	0.391	0.365	0.363	0.389	0.52	0.359	0.388	0.569	0.811	0.624	0.456	0.796	0.666	0.472
LRSELYFLIAR [PHIP_Y16]	2.02	1.54	1.4	3.06	3.17	0.916	1.71	0.769	1.93	3.62	7.59	1.63	1.5	1.44	1.03	1.05

Sequence	phosphorylation enrichment [1]	phosphorylation enrichment [2]	phosphorylation enrichment [3]	phosphorylation enrichment [4]	phosphorylation enrichment [5]	phosphorylation enrichment [6]	phosphorylation enrichment [7]	phosphorylation enrichment [8]	phosphorylation enrichment [9]	phosphorylation enrichment [10]	phosphorylation enrichment [11]	phosphorylation enrichment [12]	phosphorylation enrichment [13]	SH2 binding enrichment [14]	SH2 binding enrichment [15]	SH2 binding enrichment [16]
GSCQEYTGAPY [NAXD_Y85_G81S]	1.14	0.573	0.537	0.558	0.7	0.494	0.894	0.441	0.545	0.805	0.432	0.668	0.505	0.799	0.764	0.825
ISGLKYPVSQQ [BTK_Y375_R372G]	0.529	0.501	0.529	0.428	0.459	0.371	0.548	0.441	0.448	0.516	0.474	0.392	0.407	0.879	0.63	0.417
QRPGPYDRPGA [HNRNPH2_Y210]	0.556	0.453	0.466	0.43	0.48	0.281	0.812	0.322	0.705	0.439	0.426	0.496	0.386	0.972	1.03	1.05
TSSAGYRAAEG [COL6A3_Y543]	0.524	0.505	0.406	0.573	0.641	0.429	0.629	0.422	0.379	0.365	0.365	0.309	0.316	0.903	0.653	0.485
WQQQSYLDLGI [CTNNB1_Y30_S33L]	0.831	0.719	0.593	1.76	1.36	0.515	0.918	0.545	0.478	1.35	0.511	0.685	0.517	1.03	0.766	0.607
KVPCHYDDPGK [FOXG1_Y246_R244C]	0.827	0.469	0.527	0.412	0.598	0.86	0.943	0.437	0.793	0.717	0.412	0.707	0.443	0.906	0.838	2.01
TVLEPYTDPYY [ZC3H18_Y367_A368T]	1.2	0.611	0.541	1	0.797	0.433	0.857	0.656	0.649	0.805	0.524	0.568	0.845	0.516	0.456	1.28
MSRLKYPVSQQ [BTK_Y375_I370M]	0.573	0.413	0.741	0.434	0.621	0.375	0.706	0.473	0.435	0.54	0.478	0.573	0.491	1.03	0.78	0.608
PSNTDYPGPHS [TP63_Y171]	0.809	0.589	0.661	0.511	0.722	0.582	0.909	0.438	0.482	0.768	0.552	1.01	0.5	0.792	0.58	0.401
DKITQYVEEVR [STX2_Y49_K54R]	0.999	0.739	0.551	0.477	0.609	0.486	1.08	0.427	0.517	0.872	0.411	0.605	0.417	0.905	0.719	0.45
DPHQQYYIAMD [TBX15_Y159]	1.05	0.735	0.593	6.27	4.36	0.52	0.881	0.625	0.669	0.996	2.7	0.59	1.55	0.957	0.737	1.75
INITIYGKTFR [EFHC1_Y177]	1.13	0.648	0.683	0.583	0.781	0.936	1.37	0.438	0.573	1.4	0.439	1.05	0.508	1.01	0.658	0.5
PTTKTYFPHFG [HBA1_Y43_D48G]	0.658	0.543	0.322	0.501	0.556	0.435	0.645	0.458	0.372	0.958	0.397	0.491	0.747	1.06	0.792	0.5
TGDFGYRTPGY [TNS2_Y668_A670T]	0.524	0.4	0.423	0.404	0.465	0.342	0.651	0.479	0.394	0.484	0.481	0.459	0.432	0.762	0.889	0.466
NESVDYRATFP [MET_Y1003]	0.681	0.421	0.463	0.427	0.489	0.454	0.802	0.472	0.484	0.749	0.422	0.591	0.418	0.748	0.693	0.433
MKVPVYETPAG [PGM5_Y358]	1.57	11.7	18.2	0.492	0.649	11.6	1.08	6.27	7.86	0.903	5.35	18.2	5.2	0.851	0.698	1.28
